Kd data for one substance are collected here from publication doi:10.1101/2020.09.10.281741.

The term Kd denotes the concentration at which binding is half-saturated.

Assay [1] deals with Glc-HMW1ct (glycosylated HMW1ct, mixture of 7,8,9,10-Glc glycoforms) (H. influenzae). Briefly: SPR.
Assay [2] concerns the target His6-HMW1ct (C-terminal region of the HMW1A adhesin of H. influenzae, non-glycosylated) (H. influenzae). Briefly: SPR. Background: Surface plasmon resonance follows binding to a sensor surface in real time, without labels.

For “ApNGT-His6 (N-glycosyltransferase from Actinobacillus pleuropneumoniae) (from UniProt A3N2T3 1-620) (enzyme)”, the dissociation constant (Kd) in assay [1] came out at 9.81 µM; in assay [2], 5.85 µM.
